B1: seipin-myc13 (yeast seipin fused to 13 tandem copies of the myc epitope) (natural protein, S. cerevisiae, UniProt Q06058 1-285, looked up)
chain: MKINVSRPLQFLQWSSYIVVAFLIQLLIILPLSILIYHDFYLRLLPADSSNVVPLNTFNILNGVQFGTKFFQSIKSIPVGTDLPQTIDNGLSQLIPMRDNMEYKLDLNLQLYCQSKTDHLNLDNLLIDVYRGPGPLLGAPGGSNSKDEKIFHTSRPIVCLALTDSMSPQEIEQLGPSRLDVYDEEWLNTIRIEDKISLESSYETISVFLKTEIAQRNLIIHPESGIKFRMNFEQGLRNLMLRKRFLSYIIGISIFHCIICVLFFITGCTAFIFVRKGQEKSKKHS
B2: seipin-mCherry (yeast seipin tagged at its carboxy terminus with mCherry) (natural protein, S. cerevisiae, UniProt Q06058 1-285, looked up)
chain: B1 chain

Biological target: the molecule itself
Experiment: velocity sedimentation on H2O- and D2O-sucrose gradients + SEC

| Protein | stoichiometry N [subunits/complex] |
| --- | --- |
| B1 | 9.4 |
| B2 | 8.7 |

Reference: paper PMC3086013 (Biochemistry, 2010)
